{"source": "patent US5187153A", "about": "“Methods of treatment using Alzheimer's amyloid polypeptide derivatives” (Scios Nova Inc., priority 1990, dated 1993)", "key": {"Tryptase M": {"system": "Tryptase M", "assay": "Protease inhibition, fluorogenic MCA substrate: tryptase M", "type": "biochemical, rat", "from_the_text": "(§1) The effects of A4 inhibitor on serine- and thiol- proteases were examined as follows: trypsin (17,000 units/mg from porcine pancreas), factor Xa and β-thrombin (gifts from Dr. Iwanagu, Kyushu University, Fukuoka, Japan), tryptase and chymase (both from rat peritoneal mast cells purified as described in Kido et al., Arch Biochem Biophys 239:436-443 (1985)), α-chymotrypsin (0.75 U/mg from bovine pancreas), elastase (33 U/mg from porcine pancreas), papain, cathepsin B (from rat liver purified as described in Towatari et al., Eur J Biochem 102:279-289 (1979)), plasmin (0.16 U/mg from human plasma), urokinase (0.75 U/mg from human kidney cells, Sigma Chemical Co.), tissue kallikrein (50 U/mg from porcine pancreas) or plasma kallikrein (9.4 U/mg from human plasma) was preincubated with various concentrations of the inhibitor in a total volume of 1.5 ml of buffer containing bovine serum albumin (0.1 mg/ml). […] The amount of 7-amino-4-methylcoumarin liberated from the substrates was determined fluorometrically with excitation and emission wavelengths of 380 nm and 460 nm, respectively, in a Hitachi fluorescence spectrophotometer, 650-10MS model, as reported in Kido et al. (1988), supra. Protein concentration was determined with bicinchoninic acid protein assay reagent as described by Smith et al., Anal. Biochem. 150:76-85 (1985). […]"}, "Papain": {"target": "T1, Papain (Carica papaya, UniProt P00784)", "T1 sequence (P00784 134-345)": "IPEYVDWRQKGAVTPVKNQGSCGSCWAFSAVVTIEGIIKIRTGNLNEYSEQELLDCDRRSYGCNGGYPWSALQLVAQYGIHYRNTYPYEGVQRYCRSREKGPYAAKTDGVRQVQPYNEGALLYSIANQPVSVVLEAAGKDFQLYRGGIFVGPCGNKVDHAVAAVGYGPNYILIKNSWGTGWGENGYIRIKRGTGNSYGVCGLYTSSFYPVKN", "assay": "Protease inhibition, fluorogenic MCA substrate: papain", "type": "biochemical", "from_the_text": "as §1"}, "Cathepsin B": {"target": "T2, Cathepsin B (Rattus norvegicus, UniProt P00787)", "T2 construct": "cathepsin B (from rat liver purified as described in Towatari et al); from tissue; host or cells: rat liver", "T2 sequence (P00787 80-339)": "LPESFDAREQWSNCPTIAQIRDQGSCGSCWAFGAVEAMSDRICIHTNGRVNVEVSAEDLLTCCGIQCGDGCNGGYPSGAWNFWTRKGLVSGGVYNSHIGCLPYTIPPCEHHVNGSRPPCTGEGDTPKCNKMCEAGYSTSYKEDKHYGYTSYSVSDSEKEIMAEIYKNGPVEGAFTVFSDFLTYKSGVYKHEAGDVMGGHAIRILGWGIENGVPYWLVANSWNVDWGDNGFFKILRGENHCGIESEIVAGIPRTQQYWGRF", "assay": "Protease inhibition, fluorogenic MCA substrate: cathepsin B", "type": "biochemical", "from_the_text": "as §1"}, "trypsin [1]": {"target": "T3, trypsin (Sus scrofa, UniProt P00761)", "T3 construct": "trypsin (17,000 units/mg from porcine pancreas); from tissue; host or cells: porcine pancreas", "T3 sequence (P00761 9-231)": "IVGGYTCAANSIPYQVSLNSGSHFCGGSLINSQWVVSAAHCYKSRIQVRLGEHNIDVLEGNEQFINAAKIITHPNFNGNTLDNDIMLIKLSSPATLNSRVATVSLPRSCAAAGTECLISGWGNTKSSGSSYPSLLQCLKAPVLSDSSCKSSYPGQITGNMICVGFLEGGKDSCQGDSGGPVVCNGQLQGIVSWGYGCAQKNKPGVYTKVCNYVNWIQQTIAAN", "assay": "Protease inhibition, fluorogenic MCA substrate: trypsin", "type": "biochemical, porcine", "from_the_text": "The effects of A4 inhibitor on serine- and thiol- proteases were examined as follows: trypsin (17,000 units/mg from porcine pancreas), factor Xa and β-thrombin (gifts from Dr. Iwanagu, Kyushu University, Fukuoka, Japan), tryptase and chymase (both from rat peritoneal mast cells purified as described in Kido et al., Arch Biochem Biophys 239:436-443 (1985)), α-chymotrypsin (0.75 U/mg from bovine pancreas), elastase (33 U/mg from porcine pancreas), papain, cathepsin B (from rat liver purified as described in Towatari et al., Eur J Biochem 102:279-289 (1979)), plasmin (0.16 U/mg from human plasma), urokinase (0.75 U/mg from human kidney cells, Sigma Chemical Co.), tissue kallikrein (50 U/mg from porcine pancreas) or plasma kallikrein (9.4 U/mg from human plasma) was preincubated with various concentrations of the inhibitor in a total volume of 1.5 ml of buffer containing bovine serum albumin (0.1 mg/ml). The buffers used were as follows: 0.1 M Tris-HCl, pH 7.5, for trypsin, plasmin and urokinase; 0.1 M Tris-HCl, pH 8.0, for chymase and α-chymotrypsin; 0.1 M Tris-HCl, pH 8.0, containing 10 mM CaCl2 for factor Xa and α-thrombin; 0.1 M Tris-HCl, pH 8.5, for tryptase M; 0.1 M Tris-HCl, pH 7.8, for plasma and tissue kallikrein; 0.1 M Tris-HCl, pH 7.0 for elastase; 50 mM acetate, pH 6.0, containing 1 mM EDTA and 4 mM cysteine for papain and cathepsin B. After preincubation for 5 min at 25° C., 7.5 μl of 20 mM concentrations of the fluorogenic substrate shown in Table I were added and the residual activity of each protease was measured in a quartz cuvette maintained thermostatically at 25° C. The amount of 7-amino-4-methylcoumarin liberated from the substrates was determined fluorometrically with excitation and emission wavelengths of 380 nm and 460 nm, respectively, in a Hitachi fluorescence spectrophotometer, 650-10MS model, as reported in Kido et al. (1988), supra. Protein concentration was determined with bicinchoninic acid protein assay reagent as described by Smith et al., Anal. Biochem. 150:76-85 (1985). […]"}, "Factor Xa": {"target": "Factor Xa", "assay": "Protease inhibition, fluorogenic MCA substrate: factor Xa", "type": "biochemical", "conditions": "substrate Boc-Ile-Glu-Gly-Arg-MCA, pH 8.0, 25° C.", "from_the_text": "as §1"}, "Elastase": {"target": "T4, Elastase (Sus scrofa, UniProt P00772)", "T4 construct": "elastase (33 U/mg from porcine pancreas); from tissue; host or cells: porcine pancreas", "T4 sequence (P00772 27-266)": "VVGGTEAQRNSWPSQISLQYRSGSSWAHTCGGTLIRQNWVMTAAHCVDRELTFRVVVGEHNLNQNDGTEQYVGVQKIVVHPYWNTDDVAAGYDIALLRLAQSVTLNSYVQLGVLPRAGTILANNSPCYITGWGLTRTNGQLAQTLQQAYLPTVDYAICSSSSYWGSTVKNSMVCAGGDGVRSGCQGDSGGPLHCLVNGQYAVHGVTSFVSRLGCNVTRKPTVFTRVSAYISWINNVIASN", "assay": "Protease inhibition, fluorogenic MCA substrate: elastase", "type": "biochemical, porcine", "from_the_text": "as §1"}, "Tissue kallikrein": {"target": "T5, Tissue kallikrein (Sus scrofa, UniProt P00752)", "T5 construct": "tissue kallikrein (50 U/mg from porcine pancreas); from tissue; host or cells: porcine pancreas", "T5 sequence (P00752 8-246)": "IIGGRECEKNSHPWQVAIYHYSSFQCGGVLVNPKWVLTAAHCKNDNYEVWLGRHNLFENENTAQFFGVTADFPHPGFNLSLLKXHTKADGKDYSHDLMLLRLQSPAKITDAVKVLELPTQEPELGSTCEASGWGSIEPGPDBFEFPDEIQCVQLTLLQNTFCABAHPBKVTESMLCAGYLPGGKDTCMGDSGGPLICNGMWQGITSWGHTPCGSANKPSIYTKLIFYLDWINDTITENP", "assay": "Protease inhibition, fluorogenic MCA substrate: tissue kallikrein", "type": "biochemical, porcine", "from_the_text": "as §1"}, "α-chymotrypsin": {"target": "T6, α-chymotrypsin (Bos taurus, UniProt P00766)", "T6 construct": "α-chymotrypsin (0.75 U/mg from bovine pancreas); from tissue; host or cells: bovine pancreas", "assay": "Protease inhibition, fluorogenic MCA substrate: α-chymotrypsin", "type": "biochemical, bovine", "from_the_text": "as §1"}, "Plasmin": {"target": "T7, Plasmin (Homo sapiens, UniProt P00747)", "T7 construct": "plasmin (0.16 U/mg from human plasma); from tissue; host or cells: human plasma", "T7 sequence (P00747 581-810 limits assumed)": "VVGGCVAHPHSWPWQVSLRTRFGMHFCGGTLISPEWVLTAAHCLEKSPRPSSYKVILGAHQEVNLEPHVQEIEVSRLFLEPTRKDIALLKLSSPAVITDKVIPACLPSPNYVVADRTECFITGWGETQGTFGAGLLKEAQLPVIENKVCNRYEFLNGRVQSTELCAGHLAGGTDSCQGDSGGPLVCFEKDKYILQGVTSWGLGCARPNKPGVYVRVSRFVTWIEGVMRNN", "T7 sequence (P00747 97-580 partner limits assumed)": "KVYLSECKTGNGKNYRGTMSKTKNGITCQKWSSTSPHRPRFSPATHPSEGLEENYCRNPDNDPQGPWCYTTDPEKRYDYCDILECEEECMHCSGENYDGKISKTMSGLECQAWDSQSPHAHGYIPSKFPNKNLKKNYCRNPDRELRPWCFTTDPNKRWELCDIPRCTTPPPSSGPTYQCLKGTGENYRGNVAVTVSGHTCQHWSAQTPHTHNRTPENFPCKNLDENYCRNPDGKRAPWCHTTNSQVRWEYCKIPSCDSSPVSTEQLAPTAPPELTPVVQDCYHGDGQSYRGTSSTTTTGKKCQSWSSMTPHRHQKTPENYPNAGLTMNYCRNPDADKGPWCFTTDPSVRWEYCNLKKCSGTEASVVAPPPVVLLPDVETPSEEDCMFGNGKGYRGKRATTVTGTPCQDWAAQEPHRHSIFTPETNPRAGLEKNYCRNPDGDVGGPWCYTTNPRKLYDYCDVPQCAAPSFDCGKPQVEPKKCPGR", "assay": "Protease inhibition, fluorogenic MCA substrate: plasmin", "type": "biochemical", "from_the_text": "as §1"}, "α-Thrombin": {"system": "α-Thrombin", "assay": "Protease inhibition, fluorogenic MCA substrate: α-thrombin", "type": "biochemical", "from_the_text": "as §1"}, "Chymase": {"target": "T8, Chymase (Rattus norvegicus, UniProt P09650)", "T8 construct": "tryptase and chymase (both from rat peritoneal mast cells purified as described in Kido et al); from tissue; host or cells: rat peritoneal mast cells", "T8 sequence (P09650 21-260)": "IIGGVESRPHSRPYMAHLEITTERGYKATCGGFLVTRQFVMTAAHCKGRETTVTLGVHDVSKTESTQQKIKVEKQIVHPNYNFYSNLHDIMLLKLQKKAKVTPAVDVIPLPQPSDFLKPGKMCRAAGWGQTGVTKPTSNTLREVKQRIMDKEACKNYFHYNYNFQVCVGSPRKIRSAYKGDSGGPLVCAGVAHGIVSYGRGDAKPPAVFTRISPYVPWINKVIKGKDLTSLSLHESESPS", "assay": "Protease inhibition, fluorogenic MCA substrate: chymase", "type": "biochemical", "from_the_text": "as §1"}, "Urokinase": {"target": "T9, Urokinase (Homo sapiens, UniProt P00749)", "T9 construct": "urokinase (0.75 U/mg from human kidney cells, Sigma Chemical Co.); purchased Sigma Chemical Co; host or cells: human kidney cells", "assay": "Protease inhibition, fluorogenic MCA substrate: urokinase", "type": "biochemical", "from_the_text": "as §1"}, "Plasma kallikrein": {"target": "T10, Plasma kallikrein (Homo sapiens, UniProt P03952)", "T10 construct": "plasma kallikrein (9.4 U/mg from human plasma); from tissue; host or cells: human plasma", "T10 sequence (P03952 20-638)": "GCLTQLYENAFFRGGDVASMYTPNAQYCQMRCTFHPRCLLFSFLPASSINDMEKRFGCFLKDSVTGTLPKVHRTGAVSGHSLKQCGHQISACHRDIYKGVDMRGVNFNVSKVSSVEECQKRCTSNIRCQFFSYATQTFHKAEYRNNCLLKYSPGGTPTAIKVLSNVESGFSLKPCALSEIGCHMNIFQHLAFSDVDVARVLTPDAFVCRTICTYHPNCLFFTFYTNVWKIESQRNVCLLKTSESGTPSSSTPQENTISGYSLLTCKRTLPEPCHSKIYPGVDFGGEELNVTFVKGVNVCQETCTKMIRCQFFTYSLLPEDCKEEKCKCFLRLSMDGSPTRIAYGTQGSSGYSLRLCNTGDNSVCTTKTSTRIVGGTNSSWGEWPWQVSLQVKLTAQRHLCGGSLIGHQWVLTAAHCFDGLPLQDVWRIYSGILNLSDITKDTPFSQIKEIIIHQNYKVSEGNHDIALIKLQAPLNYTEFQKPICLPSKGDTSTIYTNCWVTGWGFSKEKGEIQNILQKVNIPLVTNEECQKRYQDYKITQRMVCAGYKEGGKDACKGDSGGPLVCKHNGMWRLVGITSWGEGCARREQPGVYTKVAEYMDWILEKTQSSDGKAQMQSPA", "assay": "Protease inhibition, fluorogenic MCA substrate: plasma kallikrein", "type": "biochemical", "from_the_text": "as §1"}, "Trypsin [2]": {"target": "Trypsin (Homo sapiens, UniProt P07477)", "assay": "Trypsin inhibition assay, release of p-nitroaniline from N-benzoyl-D-arginine-p-nitroaniline", "type": "biochemical", "conditions": "HPLC peaks of the purified inhibitor", "protocol": "All 8 oligonucleotides encoding either the phoA or ompA fusions were mixed together and treated with ligase. […] The ligated constructs were then ligated into the NdeI-HindIII sites of the vector pTRP233. The ligated vectors were transfected into E. coli strain MC1061 and Amp^R colonies selected. […] Miniprep DNA was used to transfect strains W3110 and JE5505. Small scale cultures of each of the three strains were grown and induced with IAA overnight. Culture supernatants were examined for trypsin inhibitory activity. Trypsin is assayed for its ability to hydrolyze the synthetic substrate N-benzoyl-D-arginine-p-nitroaniline to release p-nitroaniline (pNA). The release of pNA as a function of time is easily monitored in a spectrophotomer and can be quantitated to measure trypsin activity. The inhibitor is detected in this assay by virtue of its ability to bind to trypsin and prevent hydrolysis of the substrate by trypsin. Inhibitory activity was detected in the culture medium for both ompA and phoA constructs in JE5505 but not W3110 or MC1061. Expression levels appeared to be higher with the phoA construct and so only this construct was used for subsequent experiments."}}, "note": "Where two headings read alike, the source gives them in different places. Where no end group is shown, it is not given here.", "data": [{"substance": "A4i: 57 amino acid Kunitz-type serine protease inhibitor encoded by the 168 bp insert of λAPCP168i4", "values": [{"measurement": "inhibition of tryptase (in words)", "setting": "Tryptase M", "result": "strongly inhibits"}, {"measurement": "Ki", "setting": "Tryptase M; tryptase, unit inferred, read-out: dissociation constant Ki", "result": 0.22, "unit": "nM"}, {"measurement": "inhibition of papain (in words)", "setting": "Papain", "result": "did not inhibit"}, {"measurement": "Ki", "setting": "Papain; Papain, substrate Z-Phe-Arg-MCA, pH 6.0, 25° C.", "result": "> 1000", "unit": "nM"}, {"measurement": "inhibition of cathepsin B (in words)", "setting": "Cathepsin B", "result": "did not inhibit"}, {"measurement": "Ki", "setting": "Cathepsin B; Cathepsin B, substrate Z-Phe-Arg-MCA, pH 6.0, 25° C.", "result": "> 1000", "unit": "nM"}, {"measurement": "inhibition of pancreatic trypsin (in words)", "setting": "trypsin [1]", "result": "inhibits"}, {"measurement": "Ki", "setting": "trypsin [1]; Trypsin, substrate Boc-Phe-Ser-Arg-MCA, pH 7.5, 25° C., read-out: Ki value", "result": 2.7, "unit": "nM"}, {"measurement": "Ki", "setting": "trypsin [1]; pancreatic trypsin, read-out: Ki", "result": 3, "unit": "nM"}, {"measurement": "Ki", "setting": "Factor Xa", "result": 257, "unit": "nM"}, {"measurement": "inhibition of pancreatic elastase (in words)", "setting": "Elastase", "result": "did not inhibit"}, {"measurement": "Ki", "setting": "Elastase; Elastase, substrate Suc-Ala-Pro-Ala-MCA, pH 7.0, 25° C.", "result": "> 1000", "unit": "nM"}, {"measurement": "inhibition of tissue kallikrein (in words)", "setting": "Tissue kallikrein", "result": "inhibits"}, {"measurement": "Ki", "setting": "Tissue kallikrein; Tissue kallikrein, substrate Pro-Phe-Arg-MCA, pH 7.8, 25° C.", "result": 28.4, "unit": "nM"}, {"measurement": "inhibition of α-chymotrypsin (in words)", "setting": "α-chymotrypsin", "result": "inhibits"}, {"measurement": "Ki", "setting": "α-chymotrypsin; α-chymotrypsin", "result": 8.5, "unit": "nM"}, {"measurement": "inhibition of plasmin (in words)", "setting": "Plasmin", "result": "strongly inhibits"}, {"measurement": "Ki", "setting": "Plasmin; Plasmin, substrate Boc-Val-Leu-Lys-MCA, pH 7.5, 25° C.", "result": 0.075, "unit": "nM"}, {"measurement": "inhibition of α-thrombin (in words)", "setting": "α-Thrombin", "result": "did not inhibit"}, {"measurement": "Ki", "setting": "α-Thrombin; α-Thrombin, substrate Boc-Val-Pro-Arg-MCA, pH 8.0, 25° C.", "result": "> 1000", "unit": "nM"}, {"measurement": "inhibition of chymase (in words)", "setting": "Chymase", "result": "did not inhibit"}, {"measurement": "Ki", "setting": "Chymase; Chymase, substrate Suc-Leu-Leu-Val-Tyr-MCA, pH 8.0, 25° C.", "result": "> 1000", "unit": "nM"}, {"measurement": "inhibition of urokinase (in words)", "setting": "Urokinase", "result": "did not inhibit"}, {"measurement": "Ki", "setting": "Urokinase; Urokinase, substrate Glt-Gly-Arg-MCA, pH 7.5, 25° C.", "result": "> 1000", "unit": "nM"}, {"measurement": "inhibition of serum kallikrein (in words)", "setting": "Plasma kallikrein", "result": "inhibits"}, {"measurement": "Ki", "setting": "Plasma kallikrein; Plasma kallikrein, substrate Z-Phe-Arg-MCA, pH 7.8, 25° C.", "result": 73.9, "unit": "nM"}]}, {"substance": "peak 4: major HPLC peak of the purified inhibitor; full length A4i with 3 disulfide bridges (EVCSEQAETGPCRAMISRWYFDVTEGKCAPFFYGGCGGNRNNFDTEEYCMAVCGSAM; disulfide (positions not given here); UniProt P05067 289-345, looked up, fragment)", "values": [{"measurement": "activity in the trypsin inhibition assay", "setting": "Trypsin [2]", "result": "active"}]}]}
